{"source": "patent US20180245061A1", "about": "“Modified Heterocyclase” (THE UNIVERSITY COURT OF THE UNIVERSITY OF ABERDEEN, priority 2014, published 2018)", "key": {"ITACITACAYDGE": {"tested_on": "ITACITACAYDGE", "assay": "Heterocyclization of leaderless substrate peptide ITACITACAYDGE by fused-MicD/PatD enzymes (LC-ESI-MS, MALDI-TOF-MS, HPLC-ESI-MS)", "assay_type": "biochemical", "conditions": "20-30 μM enzyme, 100-110 μM peptide, 5 mM ATP, 5 mM MgCl2, 27° C., 16 h", "experimental": "The Reaction was performed in 100 mM Tris pH 8.0 supplemented with 150 mM NaCl, 5 mM ATP and 5 mM MgCl2 and contained 20 μM enzyme and 100 μM peptide. The mixture was incubated at 27° C. for 16 h. The unprocessed substrate has a molecular weight of 1329.5 Da.\nReaction was performed in 50 mM Bicine pH 9.0 supplemented with 150 mM NaCl, 5 mM ATP and 5 mM MgCl2 and contained 30 μM enzyme and 110 μM peptide. The mixture was incubated at 27° C. for 16 h. The unprocessed substrate has a molecular weight of 1219.5 Da.\nEach reaction contained 100 mM Tris pH 8.0, 150 mM NaCl, 5 mM ATP and 5 mM MgCl2, 20 μM of the respective enzyme and 100 μM substrate peptide, and was incubated at 27° C. for 16 h. The unprocessed substrate has a molecular weight of 1329.5 Da.\nReaction was performed in 50 mM Bicine pH 9.0 supplemented with 150 mM NaCl, 5 mM ATP and 5 mM MgCl2 and contained 30 μM enzyme and 110 μM peptide. The mixture was incubated at 27° C. for 16 h. The unprocessed substrate has a molecular weight of 1329.5 Da.\nOnly 1 peak (9.254 min) indicates the reaction product is only one species. […] Multiple peaks of low intensity compared with m/z=1258.5 can be attributed to noise. Product was purified from the enzyme and ATP using size exclusion chromatography (Superdex 30, GE Healthcare) and exchanged into 50 mM Bicine pH 9.0, 500 mM NaCl and 5% DMSO."}, "[1]": {"tested_on": "ITACITFCAYDG synthetic test peptide", "assay": "Heterocyclization of leaderless core/test peptide ITACITFCAYDG (LCMS, MALDI TOF MS time course)", "assay_type": "biochemical", "conditions": "after 16 h / overnight, no leader, 5 μM enzyme, 100 μM peptide, 37° C.", "experimental": "After 16 h core peptide incubated with either TruD or LynD only 1 heterocycle is formed. In contrast when incubated with LynD fusion, the heterocyclization reaction is nearly complete—the sample containing predominantly 2 heterocycles after just 2 h. PatE′ and LynD reaction after 2 h is shown as a reference.\nFor all heterocyclization reactions, […] PatE′ (and variants,) was incubated with 2 μM enzyme in 150 mM NaCl, 10 mM HEPES pH 7.4, 1 mM TCEP, 5 mM ATP and 5 mM MgCl2 for 16 h at 37° C. Samples were analyzed by ESI or MALDI MS (LCT, Micromass or 4800 MALDI TOF/TOF Analyzer, ABSciex). For cis trans activation studies, 100 μM ITACITFCAYDG synthetic test peptide (Peptide Protein Research Ltd) was reacted with 5 μM heterocyclase enzyme in the presence and absence of 5.5 μM LAELSEEAL synthetic peptide, or 5.5 μM full-length PatE′4 leader peptide. The reaction was carried out in 150 mM NaCl, 10 mM HEPES pH 7.4, 1 mM TCEP, 5 mM ATP and 5 mM MgCl2 for 16 h at 37° C. and analyzed as above. […]\nTo assess the relative rates of heterocyclization under various conditions, heterocyclization reactions were monitored at regular intervals using MALDI TOF MS. In each case, reactions of PatE′ or ITACITFCAYDG synthetic peptide were prepared as described and incubated at 37° C. prior to addition of LynD allowing a 0 time-point to be recorded. Time points for each reaction were recorded as follows: For PatE′ with LynD (standard conditions), PatE′ with LynD in the presence of α-β-methelene ATP, and ITACITFCAYDG with LynD fusion, the reaction was monitored after 1, 5, 10, 15, 20, 30, 45, 60, 90, 120 and 180 minutes; For ITACITFCAYDG with LynD in the absence, and presence of either minimal leader LAELSEEAL peptide, or full length PatE′4 leader peptide, the reaction was monitored after 15, 30, 60, 120, 240 and 1440 minutes. Reactions were set up in triplicate, and each sample was analyzed by MALDI TOF MS in triplicate (9 spectra recorded in total for each reaction at each time point). […] The rate of each reaction relative to the wild-type reaction (PatE′+LynD) was determined. […]"}}, "data": [{"molecule": "MicD-R16-GLEAS-5GA: fused-MicD: leader from R16 extended by GLEAS prior to the GA linker (SEQ ID NO: 43) (protein, Modified heterocyclase MicroD_R16_GLEAS_5GA) MSHHHHHHDYDENLYFQGSRLTAGQLSSQLAELSEEALGDAGLEASGAGAGAGAGAKLMQSTPLLQIQPHFHVEVIEPKQVYLLGEQANYALTGQLYCQILPLLDGQHSREQIVEKLDGEVPSEYIDYVLDRLAEKGYLTEAAPELSSEVAAFWSELGIAPPVAAEALRQSVTLTPVGNISEVTVAALTTALRDIGISVQTPTEAGSPTALNVVLTDDYLQPELAKINKQALESQQTWLLVKPVGSVLWLGPVFVPGKTGCWDCLAHRLRGNREVEASVLQQKQAQQQRNGQSGSVIGCLPTARATLPSTLQTGLQFAATEIAKWIVKHHVKATAPGTVFFPTLDGKIITFNHTVIDLKSHVLVRRSQCPSCGDRQILHRQGFEPVKLVSRRKHFTHDGGHRAFTPEQTVQKYQHLVSPITGVVTELVRLTDPANPLVHTYKAGHAFGSATTLRGLRNTLKYKSSGKGKTDIQSRASGLCEAIERYSGIFQGDEPRKRATLAELGDLALHPESLLYFSNTQYANREELNAQGSAAAYRWIPNRFDVSQAIDWTPVWSLTEQKHKYVPTAFCYYGYPLPEEQRFCKADSNGNAAGNTLEEAILQGFLELVERDSIAMWWYNRIRRPAVDLSTFDEPYFVDLQQFYQQQNRELWVLDVTADLGIPAFAGFSRRTVGTSERISIGFGAHLDPTIAILRALTEVSQVGLELDKIPDDKLDGESKDWMLNVTVENHPWLAPDPSVPMKTASDYPKRWSDDIHTDVMNCVKTAQTAGLEVMVLDQTRPDIGLNVVKVIIPGMRTFWTRFGQGRLYDIPVKLGWLDAPLAEEELNQTNIPF", "values": [{"measurement": "heterocyclized species produced from ITACITACAYDGE", "setting": "ITACITACAYDGE", "value": "no effect on heterocyclization"}]}, {"molecule": "TruD: cyanobactin heterocyclase from the trunkamide pathway, SEQ ID NO: 3 (protein, Prochloron sp. 06037A) MQPTALQIKPHFHVEIIEPKQVYLLGEQGNHALTGQLYCQILPFLNGEYTREQIVEKLDGQVPEEYIDFVLSRLVEKGYLTEVAPELSLEVAAFWSELGIAPSVVAEGLKQPVTVTTAGKGIREGIVANLAAALEEAGIQVSDPRDPKAPKAGDSTAQLQVVLTDDYLQPELAAINKEALERQQPWLLVKPVGSILWLGPLFVPGETGCWHCLAQRLQGNREVEASVLQQKRALQERNGQNKNGAVSCLPTARATLPSTLQTGLQWAATEIAKWMVKRHLNAIAPGTARFPTLAGKIFTFNQTTLELKAHPLSRRPQCPTCGDRETLQRRGFEPLKLESRPKHFTSDGGHRAMTPEQTVQKYQHLIGPITGVVTELVRISDPANPLVHTYRAGHSFGSATSLRGLRNVLRHKSSGKGKTDSQSRASGLCEAIERYSGIFQGDEPRKRATLAELGDLAIHPEQCLHFSDRQYDNRESSNERATVTHDWIPQRFDASKAHDWTPVWSLTEQTHKYLPTALCYYRYPFPPEHRFCRSDSNGNAAGNTLEEAILQGFMELVERDSVCLWWYNRVSRPAVDLSSFDEPYFLQLQQFYQTQNRDLWVLDLTADLGIPAFVGVSNRKAGSSERIILGFGAHLDPTVAILRALTEVNQIGLELDKVSDESLKNDATDWLVNATLAASPYLVADASQPLKTAKDYPRRWSDDIYTDVMTCVEIAKQAGLETLVLDQTRPDIGLNVVKVIVPGMRFWSRFGSGRLYDVPVKLGWREQPLAEAQMNPTPMPF", "values": [{"measurement": "heterocycles formed in core peptide ITACITFCAYDG", "setting": "[1]", "value": 1}]}, {"molecule": "MicD-Q21-9GA: fused-MicD: leader from Q21, 9 GA repeats linker, KL, MicD (SEQ ID NO: 41) (protein, Modified heterocyclase MicroD_Q21_9GA) MSHHHHHHDYDENLYFQGSQLSSQLAELSEEALGDAGAGAGAGAGAGAGAGAGAKLMQSTPLLQIQPHFHVEVIEPKQVYLLGEQANYALTGQLYCQILPLLDGQHSREQIVEKLDGEVPSEYIDYVLDRLAEKGYLTEAAPELSSEVAAFWSELGIAPPVAAEALRQSVTLTPVGNISEVTVAALTTALRDIGISVQTPTEAGSPTALNVVLTDDYLQPELAKINKQALESQQTWLLVKPVGSVLWLGPVFVPGKTGCWDCLAHRLRGNREVEASVLQQKQAQQQRNGQSGSVIGCLPTARATLPSTLQTGLQFAATEIAKWIVKHHVKATAPGTVFFPTLDGKIITFNHTVIDLKSHVLVRRSQCPSCGDRQILHRQGFEPVKLVSRRKHFTHDGGHRAFTPEQTVQKYQHLVSPITGVVTELVRLTDPANPLVHTYKAGHAFGSATTLRGLRNTLKYKSSGKGKTDIQSRASGLCEAIERYSGIFQGDEPRKRATLAELGDLALHPESLLYFSNTQYANREELNAQGSAAAYRWIPNRFDVSQAIDWTPVWSLTEQKHKYVPTAFCYYGYPLPEEQRFCKADSNGNAAGNTLEEAILQGFLELVERDSIAMWWYNRIRRPAVDLSTFDEPYFVDLQQFYQQQNRELWVLDVTADLGIPAFAGFSRRTVGTSERISIGFGAHLDPTIAILRALTEVSQVGLELDKIPDDKLDGESKDWMLNVTVENHPWLAPDPSVPMKTASDYPKRWSDDIHTDVMNCVKTAQTAGLEVMVLDQTRPDIGLNVVKVIIPGMRTFWTRFGQGRLYDIPVKLGWLDAPLAEEELNQTNIPF", "values": [{"measurement": "heterocyclized species produced from ITACITACAYDGE", "setting": "ITACITACAYDGE", "value": 4}, {"measurement": "heterocyclized species produced from ITACITACAYDGE", "setting": "ITACITACAYDGE; listed as MicD-Q21-9G", "value": "only a single four heterocycle species"}]}]}
